Experimental data published in publication PMC4650695.

Columns and labels:
[1] = target: ICP27Δ215 (HSV-1 ICP27 residues 215-512) (Herpes simplex virus 1 (HSV-1)) (UniProt P10238); assay: AUC; sedimentation velocity, 1 mg/mL in 20 mM HEPES pH 7.4, 150 mM NaCl, 40000 RPM, 20 °C
[2] = target: ICP27Δ215 (HSV-1 ICP27 residues 215-512) (Herpes simplex virus 1 (HSV-1)) (UniProt P10238); assay: SEC-MALS; 0.5 mL at 1 mg/mL on Superdex 200 10/300GL, 0.75 mL/min in gel filtration buffer (20 mM Tris, 150 mM NaCl, 50 mM L-Arg, 50 mM L-Glu, 50 mM L-Pro, 0.1 mM TCEP, 10 μM ZnCl2, pH 8.5)
[3] = target: ICP27Δ189 (HSV-1 ICP27 residues 189-512) (Herpes simplex virus 1 (HSV-1)) (UniProt P10238); assay: AUC; sedimentation velocity, 1 mg/mL in 20 mM HEPES pH 7.4, 150 mM NaCl, 40000 RPM, 20 °C
[4] = target: ICP27Δ189 (HSV-1 ICP27 residues 189-512) (Herpes simplex virus 1 (HSV-1)) (UniProt P10238); assay: SEC-MALS; 0.5 mL at 1 mg/mL on Superdex 200 10/300GL, 0.75 mL/min in gel filtration buffer (20 mM Tris, 150 mM NaCl, 50 mM L-Arg, 50 mM L-Glu, 50 mM L-Pro, 0.1 mM TCEP, 10 μM ZnCl2, pH 8.5)
[5] = target: ICP27Δ241 (HSV-1 ICP27 C-terminal residues 241-512) (Herpes simplex virus 1 (HSV-1)) (UniProt P10238); assay: AUC; sedimentation velocity, 1 mg/mL in 20 mM HEPES pH 7.4, 150 mM NaCl, 40000 RPM, 20 °C
[6] = target: ICP27Δ241 (HSV-1 ICP27 C-terminal residues 241-512) (Herpes simplex virus 1 (HSV-1)) (UniProt P10238); assay: SEC-MALS; 0.5 mL at 1 mg/mL on Superdex 200 10/300GL, 0.75 mL/min in gel filtration buffer (20 mM Tris, 150 mM NaCl, 50 mM L-Arg, 50 mM L-Glu, 50 mM L-Pro, 0.1 mM TCEP, 10 μM ZnCl2, pH 8.5)

Work on “ICP27Δ215 (HSV-1 ICP27 residues 215-512) (from UniProt P10238 215-512) (domain or fragment)” yielded a stoichiometry N [1] of 2 and a stoichiometry N [2] of 2.
“ICP27Δ189 (HSV-1 ICP27 residues 189-512) (from UniProt P10238 189-512) (domain or fragment)” gave a stoichiometry N [3] of 2 and a stoichiometry N [4] of 2.
“ICP27Δ241 (HSV-1 ICP27 C-terminal residues 241-512) (from UniProt P10238 241-512) (domain or fragment)” was tested, and the stoichiometry N [5] was 2 and the stoichiometry N [6] was 2.
